Among the data in patent US6602660 are % inhibition of binding and Effect on T-cell proliferation (% Inhibition) values, retold here.

Test [1] concerns the target Anti-human-MUC-1 mAb B27.29. The experiment in a line: flow cytometry; soluble MUC-1 mucin (1 µg) inhibits B27.29 staining of 3 day PHA activated T-cells.
Test [2] has as its target Anti-human-MUC-1 mAb B27.29. The experiment in a line: flow cytometry; soluble MUC-1 mucin (10 µg) inhibits B27.29 staining of 3 day PHA activated T-cells.
The target in test [3] is Anti-human-MUC-1 mAb B27.29. The experiment in a line: flow cytometry; soluble MUC-1 mucin (50 µg) inhibits B27.29 staining of 3 day PHA activated T-cells.
Test [4] concerns the target MUC-1 mucin expressed on the surface of PHA activated human T-cells (human) (UniProt P15941). The experiment in a line: cell-based or functional assay.

Take “soluble MUC-1 mucin (from UniProt P15941 24-1097)”: the % inhibition of binding in test [1] came to 25%; in test [2], 45%; in test [3], 65%.

In test [4], Anti-human-MUC-1 mAb B27.29 (antibody) returned an Effect on T-cell proliferation (% Inhibition) at 5 µg/ml of 58% and an Effect on T-cell proliferation (% Inhibition) at 25 µg/ml of 82%.
